# B1: PLAGL1 (parent)
# chain: EKPPSGTKEKKHQCDHCERCFYTR
# B2: S100A14 (parent)
# chain: KIANLGSCNDSKLEFRSFWELIGE
# Variants of: B1
# Test: protein stability index of a GFP-peptide fusion (GPS, HEK-293T) (PSI 1-6); higher = more stable
# Conditions: c terminus: a fixed tail appended
# 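Note: lentivirally expressed fusions sorted by FACS into six bins by GFP to DsRed ratio, PSI derived from sequencing read proportions per bin multiplied by bin number.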
row,Variant,protein stability index
1,T7I,4.11
2,T7W,3.17
3,T7Y,3.27
4,T7Q,3.82
5,T7S,3.54
6,T7L,3.67
7,T7A,3.44
8,T7K,3.28
9,T7M,3.56
10,T7V,4.06
11,T7H,3.85
12,T7G,3.69
13,T7P,3.74
14,T7E,3.79
15,T7D,3.77
16,T7R,3.44
17,T7F,3.91
18,T7C,4.29
19,T7N,3.6
20,S5I,3.97
21,S5D,4.16
22,S5M,3.48
23,S5F,3.19
24,S5Q,3.42

row,Variant,protein stability index
1,S5C,3.72
2,S5T,3.34
3,S5E,3.72
4,S5H,3.83
5,S5A,3.17
6,S5W,3.1
7,S5V,3.83
8,S5N,3.79
9,S5L,3.75
10,S5G,3.53
11,S5P,3.54
12,S5Y,3.57
13,S5R,3.29
14,S5K,3.88
15,P4I,3.57
16,P4Y,3.41
17,P4S,3.99
18,P4G,3.99
19,P4L,3.28
20,P4V,3.19
21,P4R,4.31
22,P4K,3.53
23,P4C,3.74
24,P4A,3.79

row,Variant,protein stability index
1,P4N,3.58
2,P4H,3.56
3,P4D,4.31
4,P4E,3.88
5,P4T,3.44
6,P4M,3.45
7,P4F,3.44
8,P4W,2.96
9,P4Q,3.48
10,E9Q,3.77
11,E9R,2.52
12,E9M,2.85
13,E9V,3.37
14,E9C,4.63
15,E9G,3.75
16,E9A,3.67
17,E9L,3
18,E9N,3.25
19,E9W,3.08
20,E9H,3.37
21,E9I,3.27
22,E9P,3.52
23,E9Y,2.6
24,E9F,3.26

row,Variant,protein stability index
1,E9K,2.9
2,E9S,3.32
3,E9D,3.96
4,E9T,3.51
5,P3R,3.75
6,P3T,3.68
7,P3K,3.6
8,P3M,3.41
9,P3Q,3.8
10,P3N,3.94
11,P3S,3.78
12,P3H,3.33
13,P3G,3.63
14,P3W,3.13
15,P3I,3.58
16,P3E,3.83
17,P3L,3.32
18,P3D,4.19
19,P3A,4.29
20,P3F,3.54
21,P3Y,3.5
22,P3C,3.98
23,P3V,3.97
24,K10M,3.76

row,Variant,protein stability index
1,K10Q,3.53
2,K10C,4.3
3,K10S,3.96
4,K10A,3.87
5,K10P,4.16
6,K10D,4.05
7,K10H,4.05
8,K10I,3.77
9,K10R,3.43
10,K10F,3.42
11,K10N,3.76
12,K10T,3.78
13,K10L,4.04
14,K10G,3.91
15,K10E,4.42
16,K8T,3.48
17,K8G,3.29
18,K8I,3.1
19,K8D,4.33
20,K8A,3.37
21,K8H,3.88
22,K8Q,4.78
23,K8R,3.48
24,K8L,3.04

row,Variant,protein stability index
1,K8F,2.9
2,K8W,3.35
3,K8E,4.4
4,K8P,4.25
5,K8M,4.27
6,K8S,3.66
7,K8N,3.77
8,K8Y,3.47
9,K8V,3.9
10,K8C,4.24
11,G6Y,2.92
12,G6L,3.92
13,G6H,3.68
14,G6D,3.88
15,G6Q,3.16
16,G6N,3.36
17,G6P,4.37
18,G6S,3.27
19,G6V,4
20,G6I,3.17
21,G6A,3.32
22,G6K,3.52
23,G6R,3.07
24,G6T,4.61

row,Variant,protein stability index
1,G6W,3.13
2,G6F,3.79
3,G6E,4.09
4,G6C,4.57
5,G6M,3.39
6,E1L,3.62
7,E1Q,3.87
8,E1A,3.43
9,E1N,3.59
10,E1Y,3.04
11,E1S,3.11
12,E1T,3.36
13,E1F,2.75
14,E1P,3.22
15,E1H,3.54
16,E1G,3.6
17,E1D,3.99
18,E1V,3.57
19,E1R,3.02
20,E1K,2.98
21,E1C,3.21
22,E1W,3.35
23,E1M,4.15
24,E1I,2.82

row,Variant,protein stability index
1,K2E,3.9
2,K2C,3.62
3,K2I,3.72
4,K2H,3.65
5,K2D,4.26
6,K2L,3.32
7,K2A,3.94
8,K2Y,3.17
9,K2F,3.44
10,K2M,2.93
11,K2G,3.44
12,K2V,3.86
13,K2Q,4.12
14,K2W,3.67
15,K2R,3.27
16,K2P,4.08
17,K2T,3.52
18,K2S,3.95
19,K2N,4.05

# Variants of: B2
# Test: as above
# Conditions: c terminus: a fixed tail appended
row,Variant,protein stability index
1,G23T,2.28
2,G23W,2.66
3,G23H,2.29
4,G23C,1.73
5,G23D,1.75
6,G23Y,1.75
7,R16M,1.78
8,R16H,2.77
9,R16L,3.03
10,R16E,1.92
11,R16Y,2.44
12,R16K,1.36
13,L5Q,2.17
14,L5M,1.85
15,L5G,1.72
16,L5K,2.89
17,L5R,2.25
18,L5F,2.03
19,L5I,1.41
20,L5P,2.08
21,D10K,1.98
22,D10G,2.84
23,D10W,3.28
24,D10C,1.95
25,D10E,2.21

row,Variant,protein stability index
1,D10Q,1.7
2,D10M,2.85
3,D10P,1.64
4,D10N,2.39
5,D10V,2.32
6,N9A,2.06
7,N9W,1.83
8,N9P,1.98
9,N9H,1.8
10,S17M,1.29
11,S17H,1.46
12,S17K,2.2
13,S17P,1.65
14,S17I,2.45
15,E24S,1.78
16,E24Q,2.11
17,E24F,1.88
18,E24L,1.05
19,E14Q,2.06
20,E14V,1.6
21,E14C,1.48
22,E14T,1.43
23,E14L,2.08
24,E14G,1.57
25,G6T,1.63

row,Variant,protein stability index
1,G6R,1.92
2,G6D,1.61
3,G6C,2.45
4,G6V,2.51
5,G6L,3.46
6,G6Y,1.85
7,G6A,2.11
8,C8M,1.51
9,C8K,1.55
10,C8W,1.12
11,C8T,1.76
12,C8F,1.56
13,C8L,1.49
14,C8N,1.68
15,W19A,1.89
16,W19D,3.58
17,W19V,3.86
18,W19R,2.09
19,W19Q,1.73
20,F18R,2.5
21,F18Y,1.97
22,F18P,2.27
23,F18C,2.11
24,F18M,1.63
25,F18G,2.43

row,Variant,protein stability index
1,N4S,2
2,N4E,1.68
3,N4T,1.7
4,N4H,2.71
5,N4R,1.07
6,N4L,1.67
7,N4A,2.01
8,S11I,1.75
9,S11E,1.68
10,S11C,2.62
11,E20Y,2.73
12,E20V,1.73
13,E20H,2.15
14,E20N,2.29
15,E20Q,1.62
16,E20D,2.56
17,E20M,3.34
18,E20K,2.22
19,E20L,2.77
20,F15A,2.06
21,F15P,2.42
22,F15T,2.1
23,F15Q,2.25
24,F15M,2.25
25,F15E,2.65

row,Variant,protein stability index
1,F15W,2.75
2,F15K,1.88
3,A3S,1.66
4,A3E,1.95
5,A3L,1.09
6,A3T,1.65
7,A3G,2.48
8,A3F,3.12
9,I2P,2.12
10,I2S,2.9
11,I2C,1.22
12,I2A,1.77
13,I2E,1.77
14,I2Y,1.57
15,I2T,2
16,I2D,1.61
17,K1W,3.31
18,K1A,1.98
19,K1N,1.41
20,I22N,2.61
21,I22C,1.9
22,I22G,2.32
23,I22L,1.94
24,I22S,2.28
25,I22E,3.19

row,Variant,protein stability index
1,I22R,1.98
2,K12M,2.21
3,K12S,1.96
4,K12C,2.01
5,K12L,1.72
6,K12R,2.56
7,K12T,3
8,K12W,2.47
9,L13D,2.17
10,L13P,2.5
11,L13R,1.5
12,L21D,2.57
13,L21Y,2.23
14,L21S,1.86
15,L21V,1.63
16,S7A,1.51
17,S7C,2.09
18,S7P,2.5
19,S7W,1.89
20,S7Q,1.68
21,S7E,1.87
22,S7H,2.25

# Reference: the supplement of paper PMC10567573
